Laboratory results reported in patent publication US20230340152A1 (published 2023).

Columns and labels:
[1] = target: T1, Human CD73 on cells (MDA-MB-231, Jurkat CD73 knock-in, NCI-H322) (human, UniProt P21589 27-549); assay: cell-based or functional assay
T1 sequence: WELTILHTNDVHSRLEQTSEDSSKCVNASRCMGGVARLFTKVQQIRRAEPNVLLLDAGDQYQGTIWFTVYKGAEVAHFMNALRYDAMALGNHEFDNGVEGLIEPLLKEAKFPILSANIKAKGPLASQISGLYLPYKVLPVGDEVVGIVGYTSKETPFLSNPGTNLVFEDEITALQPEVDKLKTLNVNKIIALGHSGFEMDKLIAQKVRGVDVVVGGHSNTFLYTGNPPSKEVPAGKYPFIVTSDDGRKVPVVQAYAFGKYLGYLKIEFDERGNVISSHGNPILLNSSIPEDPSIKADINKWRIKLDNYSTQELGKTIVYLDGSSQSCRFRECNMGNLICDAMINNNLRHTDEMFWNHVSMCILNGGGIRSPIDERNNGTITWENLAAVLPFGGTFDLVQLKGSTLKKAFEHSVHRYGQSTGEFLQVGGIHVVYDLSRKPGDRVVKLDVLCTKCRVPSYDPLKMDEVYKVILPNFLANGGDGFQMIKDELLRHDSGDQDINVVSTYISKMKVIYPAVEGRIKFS

Human CD73 ECD [2] = target: T2, Human CD73 ECD (human, UniProt P21589 27-549); assay: cell-based or functional assay
T2 sequence: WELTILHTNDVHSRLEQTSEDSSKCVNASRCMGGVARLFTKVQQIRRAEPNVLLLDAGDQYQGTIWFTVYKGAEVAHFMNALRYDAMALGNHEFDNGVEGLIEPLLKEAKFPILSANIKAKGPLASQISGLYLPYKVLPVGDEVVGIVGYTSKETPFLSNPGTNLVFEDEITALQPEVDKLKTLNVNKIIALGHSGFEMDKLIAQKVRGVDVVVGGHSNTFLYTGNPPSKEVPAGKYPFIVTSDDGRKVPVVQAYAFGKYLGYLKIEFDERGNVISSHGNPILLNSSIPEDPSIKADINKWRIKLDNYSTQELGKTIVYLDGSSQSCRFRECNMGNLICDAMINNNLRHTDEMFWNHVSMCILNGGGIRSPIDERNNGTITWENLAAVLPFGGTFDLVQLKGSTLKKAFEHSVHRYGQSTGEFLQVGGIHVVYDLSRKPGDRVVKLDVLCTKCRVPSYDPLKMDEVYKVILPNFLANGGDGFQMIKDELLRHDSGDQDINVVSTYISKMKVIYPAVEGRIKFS

Cynomolgus CD73 ECD [3] = target: T3, Cynomolgus CD73 ECD (cynomolgus, UniProt A0A2K5V5U7 27-549); assay: binding assay, format not stated
T3 construct: extracellular domain; also called cyno CD73
T3 sequence: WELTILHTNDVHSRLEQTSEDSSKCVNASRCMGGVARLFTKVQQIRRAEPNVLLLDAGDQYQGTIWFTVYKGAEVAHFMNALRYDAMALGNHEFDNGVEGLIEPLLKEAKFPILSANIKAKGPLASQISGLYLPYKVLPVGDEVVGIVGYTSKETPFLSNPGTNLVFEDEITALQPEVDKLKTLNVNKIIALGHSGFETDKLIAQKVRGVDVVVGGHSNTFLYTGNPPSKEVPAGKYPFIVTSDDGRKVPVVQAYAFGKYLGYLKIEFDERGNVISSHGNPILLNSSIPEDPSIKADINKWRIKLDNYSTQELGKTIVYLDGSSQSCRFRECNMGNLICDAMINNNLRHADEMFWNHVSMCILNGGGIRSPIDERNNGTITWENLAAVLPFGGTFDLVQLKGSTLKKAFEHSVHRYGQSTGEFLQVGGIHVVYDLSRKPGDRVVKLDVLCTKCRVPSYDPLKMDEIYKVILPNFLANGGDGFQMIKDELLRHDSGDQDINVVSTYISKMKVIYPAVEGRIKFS

Human CD73 ECD [4] = target: T2, Human CD73 ECD; assay: binding assay, format not stated
Murine CD73 ECD [5] = target: T4, Murine CD73 ECD (murine, UniProt Q61503 29-551, limits assumed); assay: binding assay, format not stated
T4 construct: extracellular domain; In-house recombinant ECD; also called murine CD73 extracellular domain; muCD73
T4 sequence (looked up): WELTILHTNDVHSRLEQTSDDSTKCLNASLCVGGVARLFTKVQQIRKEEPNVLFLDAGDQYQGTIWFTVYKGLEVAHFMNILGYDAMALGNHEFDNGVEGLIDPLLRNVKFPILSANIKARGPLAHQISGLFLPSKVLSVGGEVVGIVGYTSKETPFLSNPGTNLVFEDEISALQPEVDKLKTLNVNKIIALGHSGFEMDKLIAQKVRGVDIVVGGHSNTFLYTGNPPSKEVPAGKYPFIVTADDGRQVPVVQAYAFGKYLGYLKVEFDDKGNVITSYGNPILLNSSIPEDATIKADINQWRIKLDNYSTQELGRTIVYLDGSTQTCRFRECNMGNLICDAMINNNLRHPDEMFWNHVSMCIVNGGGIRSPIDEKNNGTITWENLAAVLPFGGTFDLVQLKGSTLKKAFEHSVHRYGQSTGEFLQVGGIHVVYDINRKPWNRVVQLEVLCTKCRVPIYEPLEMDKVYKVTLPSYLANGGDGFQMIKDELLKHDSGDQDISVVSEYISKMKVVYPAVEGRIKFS

Cynomolgus CD73 ECD [6] = target: T3, Cynomolgus CD73 ECD; assay: SPR (Proteon)
Human CD73 ECD [7] = target: T2, Human CD73 ECD; assay: SPR (Proteon)
Murine CD73 ECD [8] = target: T4, Murine CD73 ECD; assay: SPR (Proteon)
[9] = target: T1, Human CD73 on cells (MDA-MB-231, Jurkat …); assay: flow cytometry on cells
[10] = target: T5, Cynomolgus CD73 on MK-1 cells (cynomolgus, UniProt A0A2K5V5U7 27-549); assay: flow cytometry on cells
T5 construct: whole, on cells; also called MK-1 (cyno)
T5 sequence: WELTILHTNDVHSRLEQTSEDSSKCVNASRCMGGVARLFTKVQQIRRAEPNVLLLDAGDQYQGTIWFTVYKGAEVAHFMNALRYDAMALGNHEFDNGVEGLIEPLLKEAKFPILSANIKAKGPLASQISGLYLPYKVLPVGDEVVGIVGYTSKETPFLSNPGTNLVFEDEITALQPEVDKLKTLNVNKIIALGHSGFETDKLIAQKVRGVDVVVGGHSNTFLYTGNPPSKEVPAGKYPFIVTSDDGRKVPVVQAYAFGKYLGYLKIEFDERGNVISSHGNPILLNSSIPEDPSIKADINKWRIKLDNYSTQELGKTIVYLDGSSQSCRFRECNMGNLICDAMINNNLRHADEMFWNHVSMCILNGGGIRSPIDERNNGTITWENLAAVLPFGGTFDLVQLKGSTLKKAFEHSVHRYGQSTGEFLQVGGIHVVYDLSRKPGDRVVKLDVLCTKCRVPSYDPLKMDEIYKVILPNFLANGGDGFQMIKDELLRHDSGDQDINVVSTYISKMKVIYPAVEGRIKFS

[11] = target: T6, Murine CD73 on cells (4T1, Jurkat mCD73 knock-in) (murine, UniProt Q61503 29-551); assay: flow cytometry on cells
T6 construct: whole, on cells; also called 4T1 (murine)
T6 sequence (looked up): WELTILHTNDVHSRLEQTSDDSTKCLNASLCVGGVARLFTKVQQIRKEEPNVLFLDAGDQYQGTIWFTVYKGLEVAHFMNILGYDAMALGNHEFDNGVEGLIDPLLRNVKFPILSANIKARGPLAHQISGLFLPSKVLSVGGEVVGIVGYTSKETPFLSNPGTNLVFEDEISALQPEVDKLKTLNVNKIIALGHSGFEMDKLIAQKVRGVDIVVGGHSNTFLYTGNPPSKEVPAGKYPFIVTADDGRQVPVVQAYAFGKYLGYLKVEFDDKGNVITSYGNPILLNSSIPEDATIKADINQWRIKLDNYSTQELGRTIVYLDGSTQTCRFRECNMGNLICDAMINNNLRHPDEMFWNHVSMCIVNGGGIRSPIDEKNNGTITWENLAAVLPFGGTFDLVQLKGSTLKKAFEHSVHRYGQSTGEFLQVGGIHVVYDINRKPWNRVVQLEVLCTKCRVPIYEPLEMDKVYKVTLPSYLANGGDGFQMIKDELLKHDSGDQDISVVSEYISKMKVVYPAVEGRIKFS

[12] = target: T1, Human CD73 on cells (MDA-MB-231, Jurkat …); assay: cell-based or functional assay; remark: listed apart in the source
[13] = target: T6, Murine CD73 on cells (4T1, Jurkat mCD73 …); assay: cell-based or functional assay
Human CD73 ECD [14] = target: T2, Human CD73 ECD; assay: direct ELISA, normalized Fab supernatant, vs CD730010 GL9
Murine CD73 ECD [15] = target: T4, Murine CD73 ECD; assay: as above

| Binder | Enzyme Inhibition, MDA-MB-231, 1/EC50 (nM) [1] | Internalization, MDA-MB-231, 1/EC50 (nM) [1] | Enzyme Inhibition, rCD73, 1/EC50 (nM) (Human CD73 ECD [2]) | 1/EC50 (Cynomolgus CD73 ECD [3]) | 1/EC50 (Human CD73 ECD [4]) | 1/EC50 (Murine CD73 ECD [5]) | Kd (Cynomolgus CD73 ECD [6]) | Kd (Human CD73 ECD [7]) | Kd (Murine CD73 ECD [8]) | Kd [9] | Kd [10] | Kd [11] | also measured |
| --- | --- | --- | --- | --- | --- | --- | --- | --- | --- | --- | --- | --- | --- |
| CD730042 (antibody, V domains shown, IgG1-TM format; also called CD730042 antibody) VH: GVQLVQSGGGLVQPGGSLRLSCAASGFTFSSYGMHWVRQAPGKGLEWVAVISYDGSIKYYADSVKGRFTISRDDSKNALYLQMNSLRAEDTAVYYCSTLSGSYGYFDYWGRGTLVTVSS VL: QSVLTQPASVSGSPGQSITISCAGTSSDVGGYNYVSWYQQHPGKAPKLMIYEGSKRPSGVSNRFSGSKSGNTASLTISGLQAEDEADYYCSSYTTRSTRVFGGGTKLTVL | 0.0032 nM⁻¹ | 0 nM⁻¹ | 0 nM⁻¹ | 0.0014 nM⁻¹ | 0.0017 nM⁻¹ |  |  |  |  |  |  |  |  |
| CD730004 (antibody, V domains shown, IgG1-TM format; also called CD730004 antibody) VH: not shown VL: NFMLTQPHSVSESPGQTVTISCTRSSGSIASKYVQWYQKRPGSSPTTVIYEDTQRPSGVPDRFSGSIDISSNSASLTISGLRTEDEADYYCQSYDSTNWVFGGGTKVTVL | 0.06 nM⁻¹ | 0 nM⁻¹ |  |  |  | 0.00023 nM⁻¹ |  |  |  |  |  |  |  |
| 73combo1 (C1+GRVE+HPT) (antibody, V domains shown, IgG1-TM format; also called 73combol; clone 10 combo1) VH: EVQLLESGGGLVQPGGSLRLSCAASGFTFSSYAYSWVRQAPGKGLEWVSAISGSGGSTYYADSVKGRFTISRDNSKNTLYLQMNSLRAEDTAVYYCARLGYGRVDEWGRGTLVTVSS VL: not shown |  |  |  |  |  |  | 0.008 nM | 0.007 nM | 0.002 nM | 0.157 nM | 0.09 nM | 0.15 nM | FabZAP internalization, EC50, MDA-MB-231 [12]: 0.0038 nM; FabZAP internalization, maximum toxicity, MDA-MB-231 [12]: 97%; FabZAP internalization, EC50, 4T1 [13]: 0.0331 nM; FabZAP internalization, maximum toxicity, 4T1 [13]: 97% |
| CD730008 (antibody, IgG1, V domains shown, IgG1-TM format; also called CD730008 antibody) VH: EVQLLETGGGLVQPGGSLRLSCAASGFTFSSYAMSWVRQAPGKGLEWVSAISGSGGSTYYADSVKGRFTISRDNSKNTLYLQMNSLRAEDTAVYYCARGNYGNLDHWGKGTLVTVSS VL: QSVLTQPPSVSVSPGQTASITCSGDKVGDKYASWYQQKPGQSPVLVIYQDRKRPSGIPERFSGSNSGNTATLTISGTQPMDEADYYCQAWDSSHWVFGGGTKLTVL | 0.11 nM⁻¹ | 0 nM⁻¹ | 0 nM⁻¹ | 0.0011 nM⁻¹ | 0.0011 nM⁻¹ | 0.00058 nM⁻¹ |  |  |  |  |  |  |  |
| C1 (IgG1-TM) (antibody, V domains shown, IgG1-TM format; also called clone 10 C1) VH: EVQLLESGGGLVQPGGSLRLSCAASGFTFSSYAYSWVRQAPGKGLEWVSAISGSGGSTYYADSVKGRFTISRDNSKNTLYLQMNSLRAEDTAVYYCARLGYSTIDKWGRGTLVTVSS VL: not shown |  |  |  |  |  |  | 0.012 nM | 0.029 nM | 0.006 nM | 0.179 nM | 0.16 nM | 0.095 nM |  |
| CD730010 GL9 VH S56R Fab (Fab, name in Kabat numbering, V domains shown, Bacterial Fab, normalized supernatant) VH: EVQLLESGGGLVQPGGSLRLSCAASGFTFSSYAMSWVRQAPGKGLEWVSAISGSGGRTYYADSVKGRFTISRDNSKNTLYLQMNSLRAEDTAVYYCARLGYSTIDYWGRGTLVTVSS VL: not shown |  |  |  |  |  |  |  |  |  |  |  |  | ELISA signal, fold improvement over parental antibody (Human CD73 ECD [14]): 5.6 fold; ELISA signal, fold improvement over parental antibody (Murine CD73 ECD [15]): 4.9 fold |
